Results on 1 substance are retold here after patent US6106823.

This assay addresses CD3 (human).

As for anti-CD3 mAb SPV-T3b (antibody), the lymphokine production (IL-2, ng/ml) by T cell clone 827 with CD3 + TPA came to 10.6 ng/mL.
